These results are taken from the supplement of paper PMC12042874.

± gives the uncertainty stated by the source.

This series can be described thus: amyloid nucleation score (Sup35N fusion, yeast selection) (log enrichment); library NNK3; higher = more nucleation; inactive = no reads after selection. An outline of the steps:
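Sup35N was fused to peptides of 20 random codons and expressed in psi-negative yeast, which were induced with 100 μM copper sulfate for 24 hours and then grown on medium lacking adenine and uracil for 7 days at 30°C. Plasmid inserts from input and output were sequenced on Illumina. The nucleation score is the DiMSum log enrichment of output over input reads, centred on the mode score of non-aggregating sequences. Sequences with under 100 input reads were left out, and random libraries had three technical output replicates.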
Turning to MSMRLRIYKFFEICANSMMP, the amyloid nucleation score entry was “inactive”.

For the substance MSRTKPLGF, the amyloid nucleation score result was “inactive”.

As to MSSPAPFWSVNSVLAIKNLF, the amyloid nucleation score entry is “inactive”.

Turning to MSSQCWRQIGWDTCARS, the amyloid nucleation score result was “inactive”.

Substance MSSQVMALIRFQFHSHDSHG gave an amyloid nucleation score of 1.36 ± 0.16.

Take MSSYKCSECLRGHRGTPLPV: the amyloid nucleation score result was “inactive”.

MSVQHER: the amyloid nucleation score entry is “inactive”.

As to MTCTVRSEVYIHFNFVAIKF, the amyloid nucleation score turned out to be 0.299 ± 0.33.

As for MTCWTTYNGTDIEGKGGINN, the amyloid nucleation score entry is “inactive”.

For MTFIRPKLGKKPGMYGTNIV, the amyloid nucleation score entry is “inactive”.

On to MTGLLMSKTARFCRRNR, for which the amyloid nucleation score result is “inactive”.

For the substance MTNLCRRVGKKFPNRSHSGY, the amyloid nucleation score entry is “inactive”.

Regarding MTPGFCLPK, the amyloid nucleation score entry was “inactive”.

As to MTRCLSFWTRSQVLYFCWKL, the amyloid nucleation score entry is “inactive”.

Take MTVRETLYWVRS: the amyloid nucleation score result was “inactive”.

For the substance MTVWNSWNINIVWVMFLSA, the amyloid nucleation score result is “inactive”.

For MTYCRVFRNRASDKPYMMRL, the amyloid nucleation score result was “inactive”.

With MTYVGGSVQYGRSLRHRIDR, the amyloid nucleation score entry is “inactive”.

For MVCISL, the amyloid nucleation score entry is “inactive”.

MVDSRLNSSLNYSLCLSDVK: the amyloid nucleation score result is “inactive”.

For MVFCNGFGYGASNFGNNSAS, the amyloid nucleation score entry was “inactive”.

For the substance MVFMADK, the amyloid nucleation score is 0.268 ± 0.2.

Regarding MVLDDYIRKGG, the amyloid nucleation score came out at 0.073 ± 0.33.

With MVLYYSLILFAHCLKLARHN, the amyloid nucleation score entry is “inactive”.

As for MVRMDHCQVEDSMVTNVD, the amyloid nucleation score entry was “inactive”.

In the case of MVRSRLSASRRSICGPIISA, the amyloid nucleation score result is “inactive”.

As for MVVGCCSEGV, the amyloid nucleation score result was “inactive”.

In the case of MWDIGGARAKDCEGLSVNCI, the amyloid nucleation score entry is “inactive”.

Consider MWFHLSYMAIFNGVSMQDVC, for which the amyloid nucleation score entry is “inactive”.

For the substance MWFPSVLWTIISQSYEMQKL, the amyloid nucleation score is 0.783 ± 0.12.

On to MWHLTF, for which the amyloid nucleation score result was “inactive”.

MWICVILGSQIWSRWETMNG: the amyloid nucleation score result is “inactive”.

On to MWPNITLFFSWRTEVLLYLI, for which the amyloid nucleation score entry is “inactive”.

Take MWPYIMILGIVDTMWLLLSP: the amyloid nucleation score entry is “inactive”.

Turning to MYDGKNWQLAQ, the amyloid nucleation score entry was “inactive”.

In the case of MYERRSLDKKVHRCYILALT, the amyloid nucleation score entry is “inactive”.

Consider MYFVKMLMGVILLVNFSRW, for which the amyloid nucleation score entry was “inactive”.

In the case of MYGHIYHFRINTLWGVNL, the amyloid nucleation score result is “inactive”.

Turning to MYGLLIKNSYRKRLDLSVSI, the amyloid nucleation score entry was “inactive”.

As to MYGPMVWVDLYTCKTHRGAS, the amyloid nucleation score result is “inactive”.

As to MYLPWISSSGVLNRTSMSFY, the amyloid nucleation score was found to be 0.668 ± 0.12.

Regarding MYLVR, the amyloid nucleation score result was “inactive”.

For MYPHAQIEYYAVAHSLAIV, the amyloid nucleation score entry is “inactive”.

Take MYSPVFRI: the amyloid nucleation score result was “inactive”.

MYTLCQMLNVRTRDMTCVTR: the amyloid nucleation score entry is “inactive”.

For NAENFYV, the amyloid nucleation score entry is “inactive”.

On to NAEVALDHSSDLDS, for which the amyloid nucleation score result is “inactive”.

NAFDFSL: the amyloid nucleation score result was “inactive”.

With NAFGYSDVTVLVNSSLFESY, the amyloid nucleation score result is “inactive”.

With NAHPWGYWSIVMRNIKVVVL, the amyloid nucleation score result was “inactive”.

Substance NALMKSVTFWCSAGISISRL yielded an amyloid nucleation score of 1.26 ± 0.11.

Turning to NAVSDTGRKRECFRADRFLS, the amyloid nucleation score result was “inactive”.

The substance NCDILVLCLSCIADGRQSYE returned an amyloid nucleation score of 2.96 ± 0.078.

Consider NCFVSICLFFASTFWLGLHN, for which the amyloid nucleation score entry was “inactive”.

NCICLSGHFGHL returned an amyloid nucleation score of 2.24 ± 0.091.

As to NCIECRTDTYW, the amyloid nucleation score entry is “inactive”.

As for NCLFWSEVRFHVMCFCDWLL, the amyloid nucleation score result is “inactive”.

On to NCPQWDVCFTYLSSGRQRAD, for which the amyloid nucleation score entry was “inactive”.

Turning to NCSSVPVSALFGEGVRKTPS, the amyloid nucleation score result is “inactive”.

NCVRSLCMLWTTFTCVNDLC yielded an amyloid nucleation score of 2.1 ± 0.079.

Take NDKVGRAL: the amyloid nucleation score result was “inactive”.

In the case of NEDST, the amyloid nucleation score result was “inactive”.

Consider NEFGEVLDSN, for which the amyloid nucleation score entry is “inactive”.

For NEIMVTLHNV, the amyloid nucleation score result is “inactive”.

As to NEIQAYIRWSI, the amyloid nucleation score entry was “inactive”.

Substance NENPDNYLRIAVWTTFFSFC gave an amyloid nucleation score of 1.57 ± 0.095.

NERFERMKRKSVQLPLYVVM: the amyloid nucleation score is -0.009 ± 0.53.

For NESFDCPFAGLYRKQYIWQT, the amyloid nucleation score result was “inactive”.

For the substance NESISPFVTKRHPEFMRFNC, the amyloid nucleation score result was “inactive”.

NFENMSCSNTVNVLFIEPGA gave an amyloid nucleation score of 1.14 ± 0.096.

Take NFFNLLGMKLVR: the amyloid nucleation score result is “inactive”.

As for NFFRDSGRMCHPKGIGDRWT, the amyloid nucleation score result is “inactive”.

For NFGQTGRCYKRLRFC, the amyloid nucleation score result is “inactive”.

On to NFINYLR, for which the amyloid nucleation score entry was “inactive”.

For the substance NFKAT, the amyloid nucleation score result was “inactive”.

Turning to NFLFISYYVPGQCTV, the amyloid nucleation score entry is “inactive”.

Substance NFLLDSLSSETGFRCY showed an amyloid nucleation score of -0.607 ± 1.

Consider NFLRAKDLEYRTV, for which the amyloid nucleation score was -0.761 ± 1.1.

Take NFSPHTFVSNSM: the amyloid nucleation score result is “inactive”.

As to NFTMNLIIGCF, the amyloid nucleation score was determined as 1.3 ± 0.12.

For the substance NFTSRSAVLVR, the amyloid nucleation score is 2.21 ± 0.07.

NGDHRRCSLIT: the amyloid nucleation score result is “inactive”.

NGDMKARTFHTRDFKFGVPR: the amyloid nucleation score entry is “inactive”.

Consider NGELLCKGH, for which the amyloid nucleation score entry was “inactive”.

Take NGRWRRFLWKNGCMELYRTG: the amyloid nucleation score was 1.52 ± 0.085.

The substance NGSYIFPSNCYSKIAIVMVG had an amyloid nucleation score of 0.706 ± 0.26.

Consider NGVCTVNVTFCYMV, for which the amyloid nucleation score came out at 2.23 ± 0.058.

With NHRYMMVTATRIKWDGVSWN, the amyloid nucleation score result was “inactive”.

Take NHSSYG: the amyloid nucleation score result is “inactive”.

For NHWGSNWWLVYKVYSGGLLM, the amyloid nucleation score entry is “inactive”.

On to NHYWQ, for which the amyloid nucleation score entry is “inactive”.

Substance NIICTWCGGFMRLNLNV showed an amyloid nucleation score of 1.9 ± 0.073.

On to NIIVWPVCGILLYTHSIS, for which the amyloid nucleation score result is “inactive”.

As to NIKGFRVDKYVETL, the amyloid nucleation score result is “inactive”.

For NINRFLDLSSWIGYQNGYKA, the amyloid nucleation score result was “inactive”.

Turning to NISLLWDGAFCIYVCLLWRG, the amyloid nucleation score was -0.438 ± 0.9.

As to NISSTSFRMGNIIGNEFLVY, the amyloid nucleation score result was “inactive”.

NIVAVRCWFLDFPQDD: the amyloid nucleation score entry was “inactive”.

Substance NIYFLVRDSSRIRHKSVGWQ yielded an amyloid nucleation score of 2.17 ± 0.06.

In the case of NKKDHAYKWISVD, the amyloid nucleation score result was “inactive”.

With NKQNEVSRSCLSRCRYFGGD, the amyloid nucleation score entry is “inactive”.

For the substance NKRLAQRQWDTACFQKG, the amyloid nucleation score result was “inactive”.

On to NLDLWMQSCFHRVAVYS, for which the amyloid nucleation score entry is “inactive”.

NLDQHCRCVIGFAITYYVGY: the amyloid nucleation score result was “inactive”.

As to NLENVLFRDRYQSSTCKLCK, the amyloid nucleation score entry was “inactive”.

With NLGGAPVL, the amyloid nucleation score entry was “inactive”.

As to NLGTTLYVEICNWRIVLYIV, the amyloid nucleation score entry was “inactive”.

In the case of NLGYALICQSRVGGTFLVNS, the amyloid nucleation score result is “inactive”.

On to NLIWTVHLVVTSVISDLCVG, for which the amyloid nucleation score entry was “inactive”.

As to NLKAM, the amyloid nucleation score entry was “inactive”.

NLKFRRFTGNMCSTPKVCLK: the amyloid nucleation score result was “inactive”.

Substance NLLSLVFIRWGNYRRFKMFR returned an amyloid nucleation score of 0.77 ± 0.22.

Take NLLSSSFLPPGWRSLKLGSS: the amyloid nucleation score entry is “inactive”.

With NLMGQTSGCQCVNTACLKPC, the amyloid nucleation score entry is “inactive”.

NLNRSLVFFSCDYAGCDGCT came in with an amyloid nucleation score of 1.48 ± 0.077.

NLPTLRVVDILCLCFYRIPS: the amyloid nucleation score entry is “inactive”.

Consider NLPVF, for which the amyloid nucleation score result was “inactive”.

Turning to NLQNGDYITVWTEWEQEACR, the amyloid nucleation score result is “inactive”.

As for NLRFIRGANSA, the amyloid nucleation score result was “inactive”.

For the substance NLRSISF, the amyloid nucleation score result is “inactive”.

Substance NLSLFWMWELGKFYHGDRTA came in with an amyloid nucleation score of 2.23 ± 0.066.

Consider NLVCQLLGRQRDPINPVVCW, for which the amyloid nucleation score result was “inactive”.

As to NLVSQK, the amyloid nucleation score result is “inactive”.

Consider NMFRARGCSDFFLACMNDSA, for which the amyloid nucleation score result is “inactive”.

The substance NMFVILRFVMHKIKMFNRF displayed an amyloid nucleation score of 1.51 ± 0.079.

Regarding NMNCCLKMSVYLYRLLVHM, the amyloid nucleation score result is “inactive”.

Regarding NMNSWAMQWTICTHSTFVLS, the amyloid nucleation score entry is “inactive”.

As to NMYSISTLHRKLADPVCSV, the amyloid nucleation score entry was “inactive”.

Regarding NNAVQLYFYRLDMSYA, the amyloid nucleation score result is “inactive”.

On to NNFMYPELAPSARRCAWYCG, for which the amyloid nucleation score entry is “inactive”.

Turning to NNPLLIRDLHLTKVDISAVC, the amyloid nucleation score result is “inactive”.

NNSAM yielded an amyloid nucleation score of -0.178 ± 1.1.
